{"source": "paper PMC3576881", "target": "TβR-II/TGF-β3 binary complex (UniProt P37173)", "experiment": "SPR", "data": [{"substance": "TβR-I 7–91 (domain or fragment)", "values": [{"measurement": "Kd", "value": 310, "unit": "nM"}]}]}
